Tests used:
GRG31 EPSP synthase [1] = test: Kinetic analysis of GRG31 variants (Ki for glyphosate, Km for PEP, Vmax); type: biochemical; design: Vmax: unit not given here; details: for Ki: Ki for glyphosate, calculated from plot of Km(app) vs. glyphosate concentration; for Km: Km for PEP; for Vmax: unit not given
Experimental: GRG31 variants L3P2b11, L3P2c11 and L4e11, and L5e3 were characterized by enzymatic assays as described herein, and compared to the native GRG31 enzyme. For each enzyme the apparent Km (Km(app)) was determined at each of several glyphosate concentrations, and a plot of Km(app) vs. glyphosate concentration was used to calculate the Ki for each enzyme. The thermostability for each enzyme was assessed by incubating the enzyme at 37° C. for 16 hours, and then quantifying the enzymatic activity remaining (as Vmax) vs. control enzyme that was incubated at 4° C.

GRG31 EPSP synthase [2] = test: Thermostability of extracts of GRG31 point mutants at 37° C.; type: biochemical; details: for thermostability of extracts of error prone PCR clones: extracts of 95 clones, in words
Experimental: To improve the thermostability of GRG31, error prone PCR mutagenesis of GRG31 was performed. Forty-five thousand (45,000) clones were plated onto 50 mM glyphosate, and ninety-five (95) clones were picked.
To further investigate the contributions of various substitutions in these positions, several point mutations were generated at positions corresponding to amino acid positions 95, 206, and 215 of GRG31. Extracts of point mutants were tested for thermostability at 37° C.: […]

GRG31 EPSP synthase [3] = test: Thermostability of purified GRG31 variant proteins (4 hrs at 37° C.); type: biochemical; details: in words
Experimental: GRG31 variants L3P2b11, L3P2c11 and L4e11, and L5e3 were characterized by enzymatic assays as described herein, and compared to the native GRG31 enzyme. For each enzyme the apparent Km (Km(app)) was determined at each of several glyphosate concentrations, and a plot of Km(app) vs. glyphosate concentration was used to calculate the Ki for each enzyme. […]
Three variants (6b2, 6e7, and the triple EK (N95S A206V E215K; SEQ ID NO:20)) were grown, their proteins purified, and the thermostability of the proteins analyzed in more detail.

GRG31 EPSP synthase [4] = type: biochemical
Experimental: The thermostability of several variants of GRG31 was analyzed by measuring survival of activity at 37° C.

BL21*DE3 cells = test: Glyphosate growth screen on agar plates; type: cell-based, E. coli; details: 1×M63 minimal medium; 0.05 mM IPTG; expression construct pAX1945
Source text: A glyphosate growth screen was developed. […] Library 1 was cloned into pAX1945 between the MfeI and AlwN1 restriction sites.
Clone pAX3625 contains a grg31 variant having an in-frame stop codon that disrupts the GRG31 open reading frame.

[5] = extracts of point mutants, Table 8
[6] = extracts, separate experiment, Table 9

| Molecule | Ki (GRG31 EPSP synthase [1]) | Km (GRG31 EPSP synthase [1]) | improvement in Km for PEP relative to GRG31 (GRG31 EPSP synthase [1]; relative to GRG31, in words) | Vmax (GRG31 EPSP synthase [1]) | thermostability of extracts of error prone PCR clones (GRG31 EPSP synthase [2]) | Percent of Wt GRG31 activity (4 hrs at 37° C.) (GRG31 EPSP synthase [2]; [5]) | Percent of Wt GRG31 activity (4 hrs at 37° C.) (GRG31 EPSP synthase [2]; [6]) | thermostability compared to wild-type GRG31 (GRG31 EPSP synthase [3]) | t1/2 at 37° C. (GRG31 EPSP synthase [4]) | glyphosate concentration of agar plates on which cells grow (BL21*DE3 cells) | Vmax improvement over GRG31 (GRG31 EPSP synthase [1]; relative to GRG31) | Vmax relative to GRG31 (GRG31 EPSP synthase [1]; relative to GRG31, in words) |
| --- | --- | --- | --- | --- | --- | --- | --- | --- | --- | --- | --- | --- |
| 6b2: GRG31 variant N95→S, A206→V, SEQ ID NO:18 (protein, GRG31 variant (clone 6b2)) MNQQVITLTHPSKKIQGTVQLTGSKSESNRALIIQSLSKGQVEIANLSEAADTVTLNRVLQIASDPKPGFNTIDIGPAGTAMRFLTAYLNLVKGSFILTGTERMQQRPIGILVDAMKEIGADIHYDKKVGYPPLKIEGGLFQEKDRVKIKGNISSQYISALLLIAPALKKGLTLEIEGELTSRPYVSMTLDMLKSVGIQHEWKNNVIKIAPQAFEKQTIYVEPDWSAASYWYAIAALADANASIVLPGLRKNSLQGDIAIISIMEHFGVQSSFESDGLHLNKKVIGSDVSLFNFKECPDLAQTVVVVAAALKRDVSFTGLETLKIKETDRIAALQKEIAKFGAELIEDGDTYHLKTAQVYQPEEVTFDTYEDHRMAMAFAPLALVFDQIKIAEPQVVEKSYPDFWNHLQAQAFVIE | 92 µM | 6.5 µM | improved (lower) | 34 | increased thermostability | 228% | 139% | increased thermostability | – | – | – | – |
| GRG31: native (wild-type) GRG31 EPSP synthase, SEQ ID NO:2 (protein) MNQQVITLTHPSKKIQGTVQLTGSKSESNRALIIQSLSKGQVEIANLSEAADTVTLNRVLQIASDPKPGFNTIDIGPAGTAMRFLTAYLNLVKGNFILTGTERMQQRPIGILVDAMKEIGADIHYDKKVGYPPLKIEGGLFQEKDRVKIKGNISSQYISALLLIAPALKKGLTLEIEGELTSRPYVSMTLDMLKSVGIQHEWKNNAIKIAPQAFEKQTIYVEPDWSAASYWYAIAALADANASIVLPGLRKNSLQGDIAIISIMEHFGVQSSFESDGLHLNKKVIGSDVSLFNFKECPDLAQTVVVVAAALKRDVSFTGLETLKIKETDRIAALQKEIAKFGAELIEDGDTYHLKTAQVYQPEEVTFDTYEDHRMAMAFAPLALVFDQIKIAEPQVVEKSYPDFWNHLQAQAFVIE | 73 µM | 23 µM | – | 29.3 | – | – | – | – | 2.7 h | up to 50 mM | – | – |
| 6e7: GRG31 variant E215→K, SEQ ID NO:19 (protein, GRG31 variant (clone 6e7)) MNQQVITLTHPSKKIQGTVQLTGSKSESNRALIIQSLSKGQVEIANLSEAADTVTLNRVLQIASDPKPGFNTIDIGPAGTAMRFLTAYLNLVKGNFILTGTERMQQRPIGILVDAMKEIGADIHYDKKVGYPPLKIEGGLFQEKDRVKIKGNISSQYISALLLIAPALKKGLTLEIEGELTSRPYVSMTLDMLKSVGIQHEWKNNAIKIAPQAFKKQTIYVEPDWSAASYWYAIAALADANASIVLPGLRKNSLQGDIAIISIMEHFGVQSSFESDGLHLNKKVIGSDVSLFNFKECPDLAQTVVVVAAALKRDVSFTGLETLKIKETDRIAALQKEIAKFGAELIEDGDTYHLKTAQVYQPEEVTFDTYEDHRMAMAFAPLALVFDQIKIAEPQVVEKSYPDFWNHLQAQAFVIE | 111 µM | 3.4 µM | improved (lower) | 62 | increased thermostability | 213% | 152% | increased thermostability | – | – | 2 fold | improved |

— patent publication US8247535B2, “Directed evolution of GRG31 EPSP synthase enzyme” (Athenix Corp., priority 2008, dated 2012)
